Experimental data from patent US20140235701, “NGF APTAMER AND APPLICATION THEREOF” (RIBOMIC INC., published 2014).

Columns and labels:
Conditions in all cases: tags: R&D Systems; chain copies: 2
[1] = biological target: T1, NGF (nerve growth factor) (Homo sapiens, UniProt P01138 P01138:122-241); assay: SPR; neurite inhibition at 10 nM; no TF-1 inhibition
Experimental: The cells (2500 cells per well) were cultured for one day in an RPMI-1640 medium containing 2.5% horse serum and 1.25% fetal bovine serum in a 96 well flat-bottom plate coated with collagen type IV. […] Two days later, the cytoplasm and nuclei were stained using Cellomics Neurite Outgrowth Kit (manufactured by Thermo Scientific), and neurite length per cell was measured by Cellomics ArrayScan VTI (manufactured by Thermo Scientific). With the neurite length per cell obtained by the addition of NGF alone as inhibitory activity 0%, and that of the cell obtained by NGF free culture for 2 days as inhibitory activity 100%, the inhibitory activity of the aptamer was calculated from the neurite length per cell obtained by culturing with the addition of NGF and the aptamer in mixture.
Two NGF receptor (human TrkA and human p75) genes were introduced into TF-1 cells (ATCC Number: CRL-2003), which is a human erythroleukemic cell line, by using a retrovirus vector to give cells that highly express two receptors simultaneously and stably. The cells were suspended in an RPMI-1640 medium containing 20% fetal bovine serum, and seeded in a white 96 well flat-bottom plate at 1000 cells (50 μL) per well. […]

[2] = biological target: T1, NGF (nerve growth factor); assay: cell_activity; neurite; TF-1 0.979
[3] = biological target: T1, NGF (nerve growth factor); assay: cell_activity; neurite; TF-1 0.018
Experimental: (§1) With the neurite length per cell obtained by the addition of NGF alone as inhibitory activity 0%, and that of the cell obtained by NGF free culture for 2 days as inhibitory activity 100%, the inhibitory activity of the aptamer was calculated from the neurite length per cell obtained by culturing with the addition of NGF and the aptamer in mixture.
(§2) Two NGF receptor (human TrkA and human p75) genes were introduced into TF-1 cells (ATCC Number: CRL-2003), which is a human erythroleukemic cell line, by using a retrovirus vector to give cells that highly express two receptors simultaneously and stably. The cells were suspended in an RPMI-1640 medium containing 20% fetal bovine serum, and seeded in a white 96 well flat-bottom plate at 1000 cells (50 μL) per well. […] With the amount of luminescence per well obtained by the addition of NGF alone and culture of the cells for 3 days as inhibitory activity 0%, and that of the well obtained by NGF free culture for 3 days as inhibitory activity 100%, the inhibitory activity of the aptamer was calculated from the amount of luminescence per well obtained by culturing with the addition of NGF and the aptamer in mixture.

[4] = biological target: T1, NGF (nerve growth factor); assay: cell_activity; neurite; TF-1 0.178
[5] = biological target: T1, NGF (nerve growth factor); assay: cell_activity; neurite outgrowth inhibition; TF-1 IC50 6.924 nM
[6] = biological target: T1, NGF (nerve growth factor); assay: SPR; 145 mM NaCl, 5.4 mM KCl, 1.8 mM CaCl2, 0.8 mM MgCl2, 20 mM Tris pH 7.6; strong inhibition of NGF-receptor binding
[7] = biological target: T1, NGF (nerve growth factor); assay: cell_activity; neurite; TF-1 0.03
NT-3 (neurotrophin-3) = biological target: T2, NT-3 (neurotrophin-3) (Homo sapiens, UniProt P20783 P20783:139-257); assay: cell_activity; TF-1
T2 sequence: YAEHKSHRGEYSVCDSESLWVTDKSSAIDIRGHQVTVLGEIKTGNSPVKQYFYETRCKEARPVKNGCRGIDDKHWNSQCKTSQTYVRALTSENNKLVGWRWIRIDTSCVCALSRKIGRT

NT-4 (neurotrophin-4) = biological target: T3, NT-4 (neurotrophin-4) (Homo sapiens, UniProt P34130 P34130:81-210); assay: cell_activity; TF-1
T3 sequence: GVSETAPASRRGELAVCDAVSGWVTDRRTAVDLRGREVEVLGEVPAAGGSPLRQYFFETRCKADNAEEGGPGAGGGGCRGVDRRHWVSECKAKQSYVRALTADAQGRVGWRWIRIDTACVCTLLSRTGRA

[8] = biological target: T1, NGF (nerve growth factor); assay: cell_activity; neurite; TF-1 0.051
[9] = biological target: T1, NGF (nerve growth factor); assay: cell_activity; neurite; TF-1 0.097
Experimental: as §1, §2

[10] = biological target: T1, NGF (nerve growth factor); assay: cell_activity; neurite; TF-1 0.075
[11] = biological target: T1, NGF (nerve growth factor); assay: cell_activity; neurite; TF-1 0.035
[12] = biological target: T1, NGF (nerve growth factor); assay: cell_activity; neurite; TF-1 0.071
[13] = biological target: T1, NGF (nerve growth factor); assay: cell_activity; neurite; TF-1 0.073
[14] = biological target: T1, NGF (nerve growth factor); assay: cell_activity; neurite; TF-1 0.030
[15] = biological target: T1, NGF (nerve growth factor); assay: cell_activity; neurite; TF-1 0.027
[16] = biological target: T1, NGF (nerve growth factor); assay: cell_activity; neurite; TF-1 0.036
[17] = biological target: T1, NGF (nerve growth factor); assay: cell_activity; neurite; TF-1 0.093
[18] = biological target: T1, NGF (nerve growth factor); assay: cell_activity; neurite; TF-1 0.087
[19] = biological target: T1, NGF (nerve growth factor); assay: cell_activity; neurite; TF-1 0.025
[20] = biological target: T1, NGF (nerve growth factor); assay: cell_activity; neurite; TF-1 0.046
[21] = biological target: T1, NGF (nerve growth factor); assay: cell_activity; neurite; TF-1 0.031
Experimental: as §1, §2

[22] = biological target: T1, NGF (nerve growth factor); assay: cell_activity; neurite; TF-1 0.033
[23] = biological target: T1, NGF (nerve growth factor); assay: cell_activity; neurite; TF-1 0.043
[24] = biological target: T1, NGF (nerve growth factor); assay: cell_activity; neurite; TF-1 0.083
[25] = biological target: T1, NGF (nerve growth factor); assay: cell_activity; neurite; TF-1 0.028
Experimental: as §1, §2

T1 sequence (P01138 122-241, one chain of several): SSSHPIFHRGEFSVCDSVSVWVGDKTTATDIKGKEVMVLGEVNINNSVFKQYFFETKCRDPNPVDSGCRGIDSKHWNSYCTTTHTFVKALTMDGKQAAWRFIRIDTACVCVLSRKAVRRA

B1: SEQ ID NO: 100 (ssRNA)
RNA: GGGAGAACUUCGACCAGAAGACCAAACGGACUUUAUACCUCUGAGUCGCCUAUGCUCCUAUGUGCGCAUACAUGGAUCCUC
modifications: 2'-F C/U, dA, 2'-OH G
B1: binds [1].

For GGGUCCUGUUCAAGAGUUUCCGUCUCGUGAACUGUUACCC (ssRNA, 2'-F C/U, dA, 2'-OH G) [SEQ ID NO: 88], the IC50 [2] was 0.572 nM.

In the case of GGGUCCUGGCCAAGAGUUUCCGUCUCGUGGUCUGUUACCC (ssRNA, 2'-OMe G (G8,G34 2'-OH), dA, 2'-F C/U; 5',3' idT) [SEQ ID NO: 78(1)], the IC50 [3] is reported as 0.12 nM.

GGGUCCUGCUCAAGAGUUUCCGUCUCGUGGGCUGUUACCC (ssRNA, as 87(4) plus 2'-OMe A15,A37; no 5' idT) [SEQ ID NO: 87(5)] gave an IC50 [4] of 0.078 nM.

B2: SEQ ID NO: 99 (ssRNA)
RNA: GGGAGAACUUCGACCAGAAGUCCAAACGGGACUUUAUACCUCUGAGUCGCCUUUGCUCCUAUGUGCGCAUACAUGGAUCCUC
modifications: 2'-F C/U, dA, 2'-OH G
B2: binds [1].

GGGUCCUGGUGAUAAGUUUCCGUCUUAUCACCUGUUACCC (ssRNA, 2'-F C and U; 2'-OH G; 2'-H (deoxy) A) [SEQ ID NO: 81] showed an IC50 [5] of 0.765 nM.

B3: SEQ ID NO: 1 (ssRNA)
RNA: GGGAGAACUUCGACCAGAAGUUGACGACCAACUCGUCUCUUAUGGAUUUACGUGAACCCGUAUGUGCGCAUACAUGGAUCCUC
modifications: 2'-F C and U; 2'-OH G; 2'-H (deoxy) A
B3: binds [6].

With GGGUCCUGGCUAAGAGUUUCCGUCUCGUAGUCUGUUACCC (ssRNA, 2'-OMe G (G8,G34 2'-OH), dA, 2'-F C/U; 5',3' idT) [SEQ ID NO: 80(1)] the IC50 [7] was 0.271 nM.

GGGUCCUGGAUAAGAGUUUCCGUCUCGUAUCCUGUUACCC (ssRNA, as 82(1) except 2'-OMe C6) [SEQ ID NO: 82(3)] was tested, and the IC50 (NT-3 (neurotrophin-3)) was 42 nM, the IC50 (NT-4 (neurotrophin-4)) was 9.36 nM and the IC50 [8] was 0.255 nM.

With GGGUCCUGGAUAAGAGUUUCCGUCUCGUAUCCUGUUACCC (ssRNA, as 82(25) except dU7) [SEQ ID NO: 82(37)] the IC50 [9] was 0.098 nM.

With GGGUCCUGGAUAAGAGUUUCCGUCUCGUAUCCUGUUACCC (ssRNA, as 82(1) except 2'-OMe C20) [SEQ ID NO: 82(5)] the IC50 (NT-3 (neurotrophin-3)) was 51.2 nM, the IC50 (NT-4 (neurotrophin-4)) was less than 3 nM and the IC50 [10] was 0.269 nM.

In the case of GGGUCCUGGAUAAGAGUUUCCGUCUCGUAUCCUGUUACCC (ssRNA, as 82(1) except 2'-OMe C26) [SEQ ID NO: 82(9)], the IC50 (NT-3 (neurotrophin-3)) is reported as 34.8 nM, the IC50 (NT-4 (neurotrophin-4)) is reported as less than 3 nM and the IC50 [11] is reported as 0.252 nM.

For GGGUCCUGGAUAAGAGUUUCCGUCUCGUAUCCUGUUACCC (ssRNA, as 82(1) except 2'-OMe U25) [SEQ ID NO: 82(8)], the IC50 [12] was 0.284 nM.

GGGUCCUGGAUAAGAGUUUCCGUCUCGUAUCCUGUUACCC (ssRNA, as 82(25) except dU25) [SEQ ID NO: 82(40)] gave an IC50 [13] of 0.239 nM.

Binder GGGUCCUGGAUAAGAGUUUCCGUCUCGUAUCCUGUUACCC (ssRNA, as 82(1) except 2'-OMe U23) [SEQ ID NO: 82(7)] has an IC50 (NT-3 (neurotrophin-3)) of less than 30 nM, an IC50 (NT-4 (neurotrophin-4)) of 3.74 nM and an IC50 [14] of 0.143 nM.

With GGGUCCUGGAUAAGAGUUUCCGUCUCGUAUCCUGUUACCC (ssRNA, as 82(1) except 2'-OMe C31) [SEQ ID NO: 82(12)] the IC50 (NT-3 (neurotrophin-3)) was 34.7 nM, the IC50 (NT-4 (neurotrophin-4)) was less than 3 nM and the IC50 [15] was 0.127 nM.

In the case of GGGUCCUGGAUAAGAGUUUCCGUCUCGUAUCCUGUUACCC (ssRNA, as 82(1) except 2'-OMe U11) [SEQ ID NO: 82(4)], the IC50 (NT-3 (neurotrophin-3)) is reported as 30.4 nM, the IC50 (NT-4 (neurotrophin-4)) is reported as 3.37 nM and the IC50 [16] is reported as 0.139 nM.

GGGUCCUGGAUAAGAGUUUCCGUCUCGUAUCCUGUUACCC (ssRNA, as 82(1) except dC5) [SEQ ID NO: 82(27)] was tested, and the IC50 [17] was 0.25 nM.

In the case of GGGUCCUGGAUAAGAGUUUCCGUCUCGUAUCCUGUUACCC (ssRNA, as 82(25) except 2'-OMe C20) [SEQ ID NO: 82(26)], the IC50 (NT-3 (neurotrophin-3)) is reported as less than 30 nM and the IC50 [18] is reported as 0.13 nM.

With GGGUCCUGGAUAAGAGUUUCCGUCUCGUAUCCUGUUACCC (ssRNA, as 82(1) except 2'-OMe C39) [SEQ ID NO: 82(17)] the IC50 (NT-3 (neurotrophin-3)) was less than 30 nM, the IC50 (NT-4 (neurotrophin-4)) was less than 3 nM and the IC50 [19] was 0.127 nM.

With GGGUCCUGGAUAAGAGUUUCCGUCUCGUAUCCUGUUACCC (ssRNA, as 82(1) except 2'-OMe U30) [SEQ ID NO: 82(11)] the IC50 (NT-3 (neurotrophin-3)) was 38.1 nM, the IC50 (NT-4 (neurotrophin-4)) was 3.42 nM and the IC50 [20] was 0.253 nM.

GGGUCCUGGAUAAGAGUUUCCGUCUCGUAUCCUGUUACCC (ssRNA, as 82(1) except 2'-OMe U4,C6,U11,C21,U23,C26,U30,C32,U35,C38-40) [SEQ ID NO: 82(20)] gave an IC50 (NT-3 (neurotrophin-3)) of less than 30 nM and an IC50 [21] of 0.244 nM.

With GGGUCCUGGAUAAGAGUUUCCGUCUCGUAUCCUGUUACCC (ssRNA, as 82(1) except 2'-OMe U28) [SEQ ID NO: 82(10)] the IC50 (NT-3 (neurotrophin-3)) was 35.3 nM, the IC50 (NT-4 (neurotrophin-4)) was less than 3 nM and the IC50 [22] was 0.128 nM.

Binder GGGUCCUGGAUAAGAGUUUCCGUCUCGUAUCCUGUUACCC (ssRNA, as 82(1) except 2'-OMe U35) [SEQ ID NO: 82(15)] has an IC50 (NT-3 (neurotrophin-3)) of less than 30 nM, an IC50 (NT-4 (neurotrophin-4)) of 8.35 nM and an IC50 [23] of 0.127 nM.

In the case of GGGUCCUGGAUAAGAGUUUCCGUCUCGUAUCCUGUUACCC (ssRNA, as 82(1) except 2'-OMe U4,C6,U11,C21,U23,C26,U28,U30,C32,U35,C38-40) [SEQ ID NO: 82(22)], the IC50 (NT-3 (neurotrophin-3)) is reported as less than 30 nM and the IC50 [24] is reported as less than 0.1 nM.

GGGUCCUGGAUAAGAGUUUCCGUCUCGUAUCCUGUUACCC (ssRNA, as 82(1) except 2'-OMe C40) [SEQ ID NO: 82(18)] was tested, and the IC50 (NT-3 (neurotrophin-3)) was 38.7 nM, the IC50 (NT-4 (neurotrophin-4)) was less than 3 nM and the IC50 [25] was 0.244 nM.
